Results: paper PMC7775388

Biological target: full-length SARS-CoV-2 spike protein (residues 13-1273 of UniProtKB P0DTC2) fused to green fluoresce (SARS-CoV-2) (UniProt P0DTC2)
Experiment: flow cytometry on cells

Chain of recombinant ACE2-Fc fusion protein (residue Gln18-Ser760 fused to human Fc) (Q9BYF1 18-740 limits assumed): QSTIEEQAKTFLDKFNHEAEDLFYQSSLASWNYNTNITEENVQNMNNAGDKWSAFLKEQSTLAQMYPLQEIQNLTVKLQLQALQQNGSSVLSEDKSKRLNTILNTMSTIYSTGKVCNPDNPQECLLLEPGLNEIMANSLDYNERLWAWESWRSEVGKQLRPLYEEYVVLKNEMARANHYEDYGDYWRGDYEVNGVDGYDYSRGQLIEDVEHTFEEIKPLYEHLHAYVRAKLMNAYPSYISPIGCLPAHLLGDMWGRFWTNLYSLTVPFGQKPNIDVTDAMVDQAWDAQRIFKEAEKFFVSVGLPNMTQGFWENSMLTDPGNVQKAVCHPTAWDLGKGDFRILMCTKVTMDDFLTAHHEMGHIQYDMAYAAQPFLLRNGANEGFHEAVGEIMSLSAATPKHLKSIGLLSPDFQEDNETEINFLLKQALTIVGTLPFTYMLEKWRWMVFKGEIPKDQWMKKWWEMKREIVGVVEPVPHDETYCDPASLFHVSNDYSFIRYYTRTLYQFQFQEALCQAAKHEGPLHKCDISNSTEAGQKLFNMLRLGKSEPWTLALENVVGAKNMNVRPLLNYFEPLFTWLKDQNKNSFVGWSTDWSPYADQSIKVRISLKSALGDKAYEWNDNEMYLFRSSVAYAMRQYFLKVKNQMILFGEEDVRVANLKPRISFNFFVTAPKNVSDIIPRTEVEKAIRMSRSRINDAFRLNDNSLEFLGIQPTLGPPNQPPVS

Question: How did the Kd turn out when “recombinant ACE2-Fc fusion protein (residue Gln18-Ser760 fused to human Fc)” was run?
Answer: 10.9 nM
